This note sets out measurements from article PMC5983622, “New Insight into the Octamer of TYMS Stabilized by Intermolecular Cys43-Disulfide” (International Journal of Molecular Sciences, 2018).

Where a chain is given by its changes, count along the chain named.

This series deals with the molecule itself. Briefly: SDS-PAGE without reductant (Coomassie brilliant blue, Western blot); purified protein, serially diluted, incubated with loading buffer without beta-mercaptoethanol at 37 °C or 100 °C for 10 min; also with beta-mercaptoethanol at 100 °C (~280 kDa band disappeared, ~70 kDa band weakened); also after incubation with 2 mM dUMP and 2 mM mTHF (bands unchanged); anti-His-tag blot. (In western blotting, separated proteins are transferred to a membrane and probed.)

B1: TYMS (Cys210Gly) (enzyme, human, UniProt P04818-1 1-313, looked up)
chain: MPVAGSELPRRPLPPAAQERDAEPRPPHGELQYLGQIQHILRCGVRKDDRTGTGTLSVFGMQARYSLRDEFPLLTTKRVFWKGVLEELLWFIKGSTNAKELSSKGVKIWDANGSRDFLDSLGFSTREEGDLGPVYGFQWRHFGAEYRDMESDYSGQGVDQLQRVIDTIKTNPDDRRIIMCAWNPRDLPLMALPPCHALCQFYVVNSELSGQLYQRSGDMGLGVPFNIASYALLTYMIAHITGLKPGDFIHTLGDAHIYLNHIEPLKIQLQREPRPFPKLRILRKVEKIDDFKAEDFQIEGYNPHPTIKMEMAV
notes: thymidylate synthase (TYMS), human, NM_001071.2, with Cys210Gly made by fusion PCR, in pET-28a(+); Same construct as m1 with the point mutation; source: expressed from pET-28a, purified (Ni-NTA twice); not shown: His6, N-terminal, kept
Consider B1, for which the binding result is reported as “binds”.

B2: TYMS (Cys180Gly) (enzyme, human, UniProt P04818-1 1-313, looked up)
chain: B1 chain with C180G, G210C
notes: thymidylate synthase (TYMS), human, NM_001071.2, with Cys180Gly made by fusion PCR, in pET-28a(+); Same construct as m1 with the point mutation; source: expressed from pET-28a, purified (Ni-NTA twice); not shown: His6, N-terminal, kept
For the protein B2, the binding result is “binds”.
